Source: patent US20220356230A1 (published 2022)

T1: MERS-CoV (NCoV/Novel coronavirus) Spike Protein fragment (RBD, aa 367-606, His Tag) (Sino 40071-V08B1) (MERS-CoV, UniProt K9N5Q8 367-606)
T1 sequence: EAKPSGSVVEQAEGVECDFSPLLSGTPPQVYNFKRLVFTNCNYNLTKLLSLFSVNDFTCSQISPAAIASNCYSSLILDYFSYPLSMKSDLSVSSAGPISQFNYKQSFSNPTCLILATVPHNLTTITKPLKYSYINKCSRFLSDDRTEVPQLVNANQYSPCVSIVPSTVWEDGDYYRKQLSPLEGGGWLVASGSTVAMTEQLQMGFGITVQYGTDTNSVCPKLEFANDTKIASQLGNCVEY

T2: MERS-CoV (NCoV/Novel coronavirus) Spike Protein S1 Protein (aa 1-725, His Tag) (Sino 40069-V08B1) (MERS-CoV, UniProt K9N5Q8 18-725)
T2 sequence: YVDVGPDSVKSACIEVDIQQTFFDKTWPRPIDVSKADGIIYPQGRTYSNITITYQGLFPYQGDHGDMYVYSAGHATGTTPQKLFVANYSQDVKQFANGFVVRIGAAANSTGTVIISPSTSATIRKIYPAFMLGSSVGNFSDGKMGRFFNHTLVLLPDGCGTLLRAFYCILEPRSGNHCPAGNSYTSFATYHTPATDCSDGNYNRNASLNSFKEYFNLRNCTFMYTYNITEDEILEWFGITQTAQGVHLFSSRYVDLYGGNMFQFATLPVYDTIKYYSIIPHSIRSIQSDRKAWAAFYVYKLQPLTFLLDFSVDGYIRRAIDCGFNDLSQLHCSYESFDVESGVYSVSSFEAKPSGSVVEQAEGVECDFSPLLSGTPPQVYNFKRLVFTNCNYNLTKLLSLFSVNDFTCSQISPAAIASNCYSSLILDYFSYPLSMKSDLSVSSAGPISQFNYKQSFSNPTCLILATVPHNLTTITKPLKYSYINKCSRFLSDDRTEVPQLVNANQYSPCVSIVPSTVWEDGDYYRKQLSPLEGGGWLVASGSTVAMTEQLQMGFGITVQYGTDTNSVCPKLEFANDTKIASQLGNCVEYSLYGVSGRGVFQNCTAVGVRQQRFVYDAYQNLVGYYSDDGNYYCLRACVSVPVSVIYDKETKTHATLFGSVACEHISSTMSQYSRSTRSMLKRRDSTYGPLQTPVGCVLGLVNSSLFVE


Tests used:
[1] = biological target: Human SARS Coronavirus Spike S1 Subunit Protein (His Tag) (Sino 40150-V08B1) (Human SARS Coronavirus, UniProt P59594 14-667); assay: Luminex bead binding, antigen on microspheres, antibody supernatant
[2] = biological target: T1, MERS-CoV (NCoV/Novel coronavirus) Spike …; assay: Luminex bead assay, supernatant
[3] = biological target: T2, MERS-CoV (NCoV/Novel coronavirus) Spike …; assay: Luminex bead assay, supernatant

Row | Binder | MFI [1] | Binding signal (MFI) [2] | Binding signal (MFI) [3]
1 | mAb10989 (antibody, V domains shown) VH: QVQLVQSGAEVKKPGASVKVSCKASGYIFTGYYMHWVRQAPGQGLEWMGWINPNSGGANYAQKFQGRVTLTRDTSITTVYMELSRLRFDDTAVYYCARGSRYDWNQNNWFDPWGQGTLVTVSS VL: QSALTQPASVSGSPGQSITISCTGTSSDVGTYNYVSWYQQHPGKAPKLMIFDVSNRPSGVSDRFSGSKSGNTASLTISGLQAEDEADYYCSSFTTSSTVVFGGGTKLTVLG | 21 MFI | – | –
2 | mAb10985 (antibody, V domains shown) VH: EVQLVESGGGLVQPGRSLRLSCAASGFTFDDYAMHWVRQAPGKGLEWVSGISWNRGSIGYADSVKGRFTISRDNAKNSLYLQMSSLRAEDTALYYCAKDGERWDSVVVPSARNGMDVWGQGTTVTVSS VL: QSVLTQPPSVSGAPGQRVTISCTGSSSNIGAGYDVHWYQQLPGTAPKLLIYGNSNRPSGVPDRFSGSKSGTSASLAITGLQAEDEADYYCQSYDSSLSGSYVFGTGTKVTVLG | – | 31 MFI | 22 MFI
3 | mAb10986 (antibody, V domains shown) VH: EVQLVESGGGLVQPGGSLRLSCAASEFTVSSNYMSWVRQAPGKGLEWVSVIYSGGSTFYADSVKGRFTISRDNSKNTLYLQMNSLRAEDTAVYYCARALPYGDLHFDYWGQGTLVTVSS VL: QSVLTQPPSVSGAPGQRVTISCTGSSSNIGTGYDVHWYQQLPGTAPKLLIYGNTNRPSGVPDRFSGSKSGTSASLAITGLQAEDEADYYCQSYDSSLSDSYVFGTGTKVTVLG | – | 27 MFI | 20 MFI
4 | mAb10967 (antibody, V domains shown) VH: EVQLVESGGGLVQPGGSLRLSCAASGFTVSSNYMSWVRQAPGKGLEWVSVIYPGGSTFYADSVKGRFTISRDNSKNTLYLQMNSLRAEDTAVYYCARDQRDFAWGQGTLVTVSS VL: DIQMTQSPSSLSASVGDRVTITCQASQDISNYLNWYQQKPGKAPKLLIYDASNLETGVPSRFSGSGSGTDFTFTISGLQPEDIATYYCQQYDNLPPTFGQGTRLEIKR | 21 MFI | – | –
5 | mAb10954 (antibody, V domains shown) VH: EVQLVESGGGLVQPGGSLRLSCAASGITVSSNYMSWVRQAPGKGLEWVSLIYSGGSTYYADSVKGRFTISRDNSKNTLYLQMNSLRVEDTAVYYCARDHGMAAAGYNYWGQGTLVTVSS VL: DIQMTQSPSSLSASVGDRVTITCQASQDINKYLNWYQQKPGKAPKLLIYDASNLETGVPSRFSGSGSGTDFTFTINSLQPEDFATYFCQQYDNLPPAFGQGTKVEIKR | 15 MFI | – | –
6 | mAb10965 (antibody, V domains shown) VH: EVQLVESGGGLIQPGGSLRLSCAASVFTVSYNYMSWVRQAPGKGLEWVSVIYSGGSTYYADSVKGRFTISRDNSKNTLYLQMNSLRAEDTAVYYCARALPGWGGSFEYFDYWGQGTLVTVSS VL: not shown | 16 MFI | – | –
